In patent US20060029947A1 (University of Texas, published 2006) one finds Kd, koff and kon data, which are given here for one molecule.

For the assay, the target named is Bacillus anthracis protective antigen (PA) (Bacillus anthracis, UniProt P13423 30-764).
Chain of Bacillus anthracis protective antigen (PA) (P13423 30-764 limits assumed): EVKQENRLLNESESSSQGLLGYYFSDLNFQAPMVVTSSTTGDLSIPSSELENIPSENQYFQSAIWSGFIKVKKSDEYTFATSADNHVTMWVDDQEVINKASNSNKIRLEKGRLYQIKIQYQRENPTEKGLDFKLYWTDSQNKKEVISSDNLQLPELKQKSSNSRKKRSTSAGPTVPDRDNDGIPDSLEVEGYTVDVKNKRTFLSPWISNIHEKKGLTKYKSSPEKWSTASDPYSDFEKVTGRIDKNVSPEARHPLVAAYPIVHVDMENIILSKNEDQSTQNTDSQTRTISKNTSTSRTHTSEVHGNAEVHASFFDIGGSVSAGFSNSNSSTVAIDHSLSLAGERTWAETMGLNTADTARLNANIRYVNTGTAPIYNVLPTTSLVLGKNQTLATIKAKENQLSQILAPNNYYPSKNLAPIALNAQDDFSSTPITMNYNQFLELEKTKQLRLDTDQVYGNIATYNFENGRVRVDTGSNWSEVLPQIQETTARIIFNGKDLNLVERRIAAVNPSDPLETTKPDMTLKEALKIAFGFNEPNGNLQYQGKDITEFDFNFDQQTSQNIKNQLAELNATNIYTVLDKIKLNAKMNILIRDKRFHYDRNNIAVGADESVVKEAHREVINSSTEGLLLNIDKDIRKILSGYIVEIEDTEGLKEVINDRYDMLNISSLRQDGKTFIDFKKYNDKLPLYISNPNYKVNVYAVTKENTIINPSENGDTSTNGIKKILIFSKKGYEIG

B1: M18 with the Q55L substitution, scAb (scFv)
chain: DIQMTQTTSSLSASLGDRVTVSCRASQDIRNYLNWYQQKPDGTVKFLIYYTSRLLPGVPSRFSGSGSGTDYSLTINNLEQEDIGTYFCQQGNTPPWTFGGGTKLEIKRGGGGSDGGGSGGGGSGGGGSEVQLQQSGPELVKPGASVKISCKDSGYAFNSSWMNWVKQRPGQGLEWIGRIYPGDGDSNYNGKFEGKAILTADKSSSTAYMQLSSLTSVDSAVYFCARSGLLRYAMDYWGQGTSVTVSS
One may read the Kd as the free concentration of one partner at which half of the binding sites on the other are occupied at equilibrium, for simple one-to-one binding. The low end stands for higher affinity, the high end for lower affinity. One may read the koff as the rate constant with which the complex falls apart. Usually kon stands for the second-order rate constant of association. Read a high kon as faster complex formation. Molecule B1 registered a Kd of 0.021 nM, a koff of 2.4e-05 s⁻¹ and a kon of 1.1e+06 M⁻¹ s⁻¹.
